From EP1775307B1 (dated 2011)

How the values were obtained:
[1] = target: 28/32 kDa heterodimeric antigen on the surface of malignant B-cells (human); assay: Scatchard analysis, 125I-labeled antibody on Raji cells
[2] = target: T1, human CD3 antigen (CD3 complex) on T cells (human, UniProt P07766 23-207); assay: Scatchard analysis, 125I-labeled HuM291-Fos on activated human T cells
T1 construct: whole, on cells; Multi-subunit complex; also called human CD3 complex
T1 sequence (P07766 23-207, one chain of several): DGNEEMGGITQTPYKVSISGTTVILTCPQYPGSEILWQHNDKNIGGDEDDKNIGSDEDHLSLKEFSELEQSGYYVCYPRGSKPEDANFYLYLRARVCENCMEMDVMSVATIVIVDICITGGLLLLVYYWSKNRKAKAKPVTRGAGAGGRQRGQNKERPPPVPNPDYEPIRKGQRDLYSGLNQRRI

Molecule	Ka [1]	Ka [2]
humanized 1D10-IgG1 (antibody)	2.3e+08 M⁻¹	
HuM291-Fos F(ab'-zipper)2 (other) chain 1: QVQLVQSGAEVKKPGASVKVSCKASGYTFISYTMHWVRQAPGQGLEWMGYINPRSGYTHYNQKLKDKATLTADKSASTAYMELSSLRSEDTAVYYCARSAYYDYDGFAYWGQGTLVTVSSASTKGPSVFPLAPSSKSTSGGTAALGCLVKDYFPEPVTVSWNSGALTSGVHTFPAVLQSSGLYSLSSVVTVPSSSLGTQTYICNVNHKPSNTKVDKKVEPKSCDKTHTCPPCKCPAGGLTDTLQAETDQLEDKKSALQTEIANLLKGKEKLEFILAATS chain 2: DIQMTQSPSSLSASVGDRVTITCSASSSVSYMNWYQQKPGKAPKRLIYDTSKLASGVPSRFSGSGSGTDFTLTISSLQPEDFDTYYCQQWSSNPPTFGGGTKVEIKRTVAAPSVFIFPPSDEQLKSGTASVVCLLNNFYPREAKVQWKVDNALQSGNSQESVTEQDSKDSTYSLSSTLTLSKADYEKHKVYACEVTHQGLSSPVTKSFNRGEC		1.1e+09 M⁻¹
